This data set concerns the target TNF-alpha (UniProt P01375 77-233). In words: FRET quenching (QD photoluminescence decreases with TNF-alpha); DSS peptide-conjugated QD/Au molecular beacon, TNF-alpha in PBS; TNF-alpha samples in PBS; other assay conditions (temperature, concentrations) not in the material; beacon washed in 50 mM borate pH 8.3. Particulars: chain copies: 3.

Chain of TNF-alpha (P01375 77-233): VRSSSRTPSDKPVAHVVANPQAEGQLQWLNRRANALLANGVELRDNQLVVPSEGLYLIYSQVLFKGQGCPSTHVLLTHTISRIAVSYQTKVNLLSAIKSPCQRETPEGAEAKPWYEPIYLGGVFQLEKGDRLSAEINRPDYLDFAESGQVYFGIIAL

Take TGGTGGATGGCGCAGTCGGCGACAA (ssDNA, 5' Amino C6; 3' Thiol C6 SS) [TNF-alpha binding DNA aptamer (25 nt) in DSS-molecular beacon]: the binding result is given as “binds”.

For the origin of these results see publication PMC7413375, “A study on the response of FRET based DNA aptasensors in intracellular environment”.
